From patent US20210332145A1 (SINGLE CELL TECHNOLOGY, published 2021)

T1: human BCMA with a His tag (ACROBiosystems, Catalog No.: BCA-H522y) (human)
T1 construct: Bought His-tagged recombinant protein; also called huBCMA-His; Recombinant human BCMA
T1 chain: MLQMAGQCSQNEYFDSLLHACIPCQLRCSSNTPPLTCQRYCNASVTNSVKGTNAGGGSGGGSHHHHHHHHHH

T2: BCMA on cells (293T cells transfected with BCMA; H929, MM.1S and U266 cell lines expressing BCMA) (human, UniProt Q02223 1-184)
T2 construct: H929, MM.1S and U266 carry the native protein; also called B-cell Maturation Antigen; TNFRSF17
T2 sequence: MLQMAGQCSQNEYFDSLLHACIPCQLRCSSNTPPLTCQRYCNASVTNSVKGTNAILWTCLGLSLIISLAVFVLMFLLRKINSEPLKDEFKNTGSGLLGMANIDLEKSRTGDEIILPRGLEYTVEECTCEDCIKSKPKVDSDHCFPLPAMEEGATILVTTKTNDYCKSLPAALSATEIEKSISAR

T3: mouse BCMA with a His tag (ACROBiosystems, Catalog No.: BCA-M52H3) (mouse)
T3 construct: Bought His-tagged recombinant protein
T3 chain: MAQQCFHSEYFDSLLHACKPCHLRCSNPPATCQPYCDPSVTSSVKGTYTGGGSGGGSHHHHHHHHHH


Experiments:
[1] = target: T1, human BCMA with a His tag …; assay: SPR, Biacore T200
Experimental: The binding affinity of select anti-BCMA was measured on a surface plasmon resonance (SPR) instrument, Biacore T200™, against human BCMA by a method known in the art.
In experiments performed essentially as described above, a subset of anti-human BCMA antibodies of the present disclosure bind human BCMA with a His tag (ACROBiosystems, Beijing, China, Catalog No.: BCA-H522y, SEQ ID NO:2) with affinity shown in Table 6.

[2] = target: T2, BCMA on cells (293T cells transfected …); assay: flow cytometry, H929 cells
Experimental: A cell line expressing BCMA, H929, was used to assess binding by anti-BCMA antibodies on the native protein on the cell surface by flow cytometry according to the known art. A subset of anti-human BCMA antibodies were assayed for binding to H929 and the fraction of cells bound the labeled antibody above background defined by control is shown in Table 8.

[3] = target: T2, BCMA on cells (293T cells transfected …); assay: flow cytometry, H929 cells; remark: listed apart in the source
[4] = target: T4, cyno BCMA with a His tag (ACROBiosystems, Catalog No.: BCA-052H7) (cyno); assay: ELISA, plate-coated cyno BCMA-His
T4 construct: Bought His-tagged recombinant protein
T4 sequence (chain, as listed by the source limits assumed): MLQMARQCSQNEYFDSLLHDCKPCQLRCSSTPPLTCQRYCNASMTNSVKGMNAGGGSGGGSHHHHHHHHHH
Experimental: (§1) The recombinantly expressed antibodies were used to assess binding activity to BCMA of different species origins by conventional ELISA according to the known art. Recombinant human BCMA, cyno BCMA, and mouse BCMA were coated onto ELISA plates to detect binding at serially diluted concentrations of the anti-BCMA antibody preparations.
(§2) The ability for antibodies of the present disclosure to bind human BCMA was measured with an ELISA assay. For the BCMA binding assay, a 96-well plate (Nunc) is coated with human BCMA with a His tag (ACROBiosystems, Catalog No.: AC108P1-180611F2-Bulk, SEQ ID NO:2) at 0.2 μg/well overnight at 4° C. Wells are blocked for 2 h with blocking buffer (PBS containing 3% bovine serum albumin). Wells are washed three times with PBS containing 0.1% Tween-20. Anti-human BCMA antibodies of the present disclosure or control IgG (100 μL) is then added and incubated at room temperature for 1 h. After washing, the plate is incubated with 100 μL of goat anti-mouse IgG Fcγ Fragment Specific-HRP conjugate (Jackson ImmunoResearch) at room temperature for 1 h. The plates are washed and then incubated with 100 μL of 3,3′,5,5′-tetra-methylbenzidine. The absorbance at 450 nm is read on a microplate reader. The half maximal effective concentration (EC50) is calculated using GraphPad Prism 6 software.
In experiments performed essentially as described above, anti-human BCMA antibodies of the present disclosure bind cyno BCMA with a His tag (ACROBiosystems, Beijing, China, Catalog No.: BCA-052H7, SEQ ID NO:110) with an EC50 values shown in Table 4.

[5] = target: T1, human BCMA with a His tag …; assay: ELISA, plate-coated human BCMA-His
Experimental: as §1, §2
In experiments performed essentially as described above, anti-human BCMA antibodies of the present disclosure bind human BCMA with a His tag (ACROBiosystems, Beijing, China, Catalog No.: BCA-H522y, SEQ ID NO:2) with an EC50 values shown in Table 3.

[6] = target: T3, mouse BCMA with a His tag …; assay: ELISA, plate-coated mouse BCMA-His
Experimental: as §1, §2
In experiments performed essentially as described above, anti-human BCMA antibodies of the present disclosure bind mouse BCMA with a His tag (ACROBiosystems, Beijing, China, Catalog No.: BCA-M52H3, SEQ ID NO:109) with an EC50 values shown in Table 5.

[7] = target: T2, BCMA on cells (293T cells transfected …); assay: flow cytometry, 293T cells transfected with BCMA, above parental 293T background

| Binder | Kd [1] | koff [1] | kon [1] | Positive (%) [2] | Mean fluorescent intensity [3] | EC50 [4] | EC50 [5] | EC50 [6] | Positive (%) [7] |
| --- | --- | --- | --- | --- | --- | --- | --- | --- | --- |
| SCT-Aa06(h/h) (antibody, V domains shown, Full IgG format, chimeric: human IgG1 heavy chain constant region, human kappa light chain constant region) VH: EVQLQQSGPELVKPGNSVKISCKASGYSFTGYFMNWVMQSHGKSLEWIGRINPYNGDTFYNQKFKGKATLTVDKSSSTAHMELRSLTSEDSAVYYCARLDYTNYNSYPMDYWGQGTSVTVSS VL: DIQMTHTTSSLSASLGDRVTISCSASQGISNYLNWYLQKPDGTVKLLIYYTSNLHSGVPSRFSGSGSGTDFSLTISNLQPEDIATYYCQQYSKFPWTFGGGTKLEIK | 5.38 nM | 0.02 s⁻¹ | 3.72e+06 M⁻¹ s⁻¹ | 99.6% | 1260 | 0.0976 µg/mL | 0.00278 µg/mL | 0.0972 µg/mL | 82.8% |
| SCT-Aa16(h/h) (antibody, V domains shown, Full IgG format, chimeric: human IgG1 heavy chain constant region, human kappa light chain constant region) VH: EVQLQQSGPELVKPGASVKMSCKGSGYTFTNYIMHWVKQKPGQGLEWIGYIIPYNDNTKYNEKFKGKATLTSDKSSSTAYMELSSLTSEDSAVYYCATYEYDVGLDYWGQGTTLTVSS VL: DLQMTQTTSSLSASLGDRVTISCSARQGIVNYLNWYQQKPDGTVKLLIYNTSSLHSGVPSRFSGSGSGTDYSLTISNLEPEDIATYYCQQYSKLPWTFGGGTKLEIK | 26.7 nM | 0.199 s⁻¹ | 7.43e+06 M⁻¹ s⁻¹ | 96.1% | 853 | 0.0778 µg/mL | 0.00201 µg/mL | 1.08 µg/mL | 68.1% |
| SCT-Aa17(h/h) (antibody, V domains shown, Full IgG format, chimeric: human IgG1 heavy chain constant region, human kappa light chain constant region) VH: EVQLQQSGPELVKPGASVKMSCKASGYTFTSYVMDWVKQKPGQGLEWIGYINPYNDGTKYNEKFKGKATLTSDKSSSTVYMELSSLTSEDSAVYHCARSDYDYGYAMDYWGQGTSVTVSS VL: DIQMTQSPASLSLSVGETVTITCRASENIYSNLAWYQQKQGNSPQLLVYSATHLADGVPSRFSGSGSGTQYSLKINSLQSEDFGCYYCQHFWGPPWTFGGGTKLEIK | 2.45 nM | 0.0132 s⁻¹ | 5.39e+06 M⁻¹ s⁻¹ | 75% | 232 | 2.17 µg/mL | 0.00356 µg/mL | 4.33 µg/mL | 43% |
| SCT-Aa12(m/m) (antibody, V domains shown, Full IgG format: mouse IgG1 heavy chain constant region, mouse kappa light chain constant region) VH: QVQLQQSDAELVKPGASVKISCKVSGYTFTDYTIHWMKQRPEQGLEWIGYIFPSDGSTKYNEKFKGKATLTADKSSSTAYMQLNSLTSDDSAVYFCARWDYEGFDYWGQGTTLTVSS VL: DIVMTQSPATLSVTPGDRVSLSCRASQSISDYLNWYQQKSHESPRLLIKYASQSISGIPSRFSGSGSGSDFTLSINSVEPEDVGVYYCQNGHSFPPTFGSGTKLEIK | 5.01 nM | 0.011 s⁻¹ | 2.2e+06 M⁻¹ s⁻¹ | 99.9% | 3480 | 9.74 µg/mL | 0.0017 µg/mL | 0.0107 µg/mL | 85.7% |
| SCT-Aa13(h/h) (antibody, V domains shown, Full IgG format, chimeric: human IgG1 heavy chain constant region, human kappa light chain constant region) VH: QVQLQQSDAELVKPGASVKISCKVSGYTFTDYTIHWMKQRPEQGLEWIGYIYPRDGSTKYNEKFKGKATLTADKSSSTAYMQLNSLTSEDSAVYFCARWDYEGFDYWGQGTTLTVSS VL: DIVMTQSPATLSVTPGDRVSLSCRASQSISDYLHWYQQKSHESPRLLIKYASQSISGIPSRFSGSGSGSDFTLSINSVEPEDVGVYYCQNGHSFPPTFGSGTKLEIK | 4.85 nM | 0.0157 s⁻¹ | 3.23e+06 M⁻¹ s⁻¹ | 96.5% | 756 | 0.131 µg/mL | 0.00268 µg/mL | 0.019 µg/mL | 74.3% |
| SCT-Aa02(m/m) (antibody, V domains shown, Full IgG format: mouse IgG1 heavy chain constant region, mouse kappa light chain constant region) VH: EVKLLQSGGGLVQPGGSLKLSCAASGIDFSRYWMSWVRRAPGKGLEWIGEINPDSSTINSAPSLEDKFIISRDNAKNTLYLQMSKVRSEDTALYYCASLYYDYERDYAMDYWGQGASVTVSS VL: DIVMTQSQKFMSTSVGDRVSVTCKASQNVGTNVAWYQQKPGQSPKALIYSASYRFSGVPDRFTGSGSGTDFTLTISNVQSEDLAEYFCQQYHSYPFTFGGGTKLEIK | 0.388 nM | 0.000113 s⁻¹ | 292000 M⁻¹ s⁻¹ | 100% | 4560 | 0.0891 µg/mL | 0.00286 µg/mL | 0.00262 µg/mL | 96.3% |
| SCT-Aa03(h/h) (antibody, V domains shown, Full IgG format, chimeric: human IgG1 heavy chain constant region, human kappa light chain constant region) VH: EVKLLQSGGGLVQPGGSLKLSCAASGIDFSRYWMSWVRRAPGKGLEWIGEINPDSSTINYAPSLKDKFIISRDNAKNTLYLQMSKVRSEDTALYYCASFYYDYDHAMDYWGQGTSVTVSS VL: DIVMTQSQKFMSTSVGDRFSVTCKASQNVGTNVAWYQQKPGQSPKALIYSASYRFSGVPDRFTGSGSGTDFTLTISNVQSEDLAEYFCQQYNSYPFTFGSGTKLEIK | 9.49 nM | 0.00284 s⁻¹ | 299000 M⁻¹ s⁻¹ | 98.2% | 1070 | 1.6 µg/mL | 0.00346 µg/mL | 0.0108 µg/mL | 75.1% |
| SCT-Aa04(m/m) (antibody, V domains shown, Full IgG format: mouse IgG1 heavy chain constant region, mouse kappa light chain constant region) VH: EVKLLQSGGGLVQPGGSLKLSCAASGIDFSRYWMSWVRRAPGKGLEWIGEINPDSSTINYAPSLKDKFIISRDNAKNTLYLQMSKVRSEDTALYYCASFYYDYDRGAAMDYWGQGTSVTVSS VL: DIVMTQSQKFMSTSVGDRVSVTCKASQNVGTNVAWYQQKPGQSPKALIYSASYRYSGVPDRFTGSGSGTDFTLTISNVQSEDLAEYFCQQYNSYPYTFGGGTKLEIK | 5.62 nM | 0.0126 s⁻¹ | 2.25e+06 M⁻¹ s⁻¹ | 99.9% | 3790 | 2.05 µg/mL | 0.00232 µg/mL | 0.0343 µg/mL | 88.9% |
